Assay results published in US6866997.

Key:
[1] = system: anti-ras lead zinc finger peptide (designed) (synthetic); conditions: apparent Kd; phage display
[2] = system: anti-ras optimised zinc finger peptide (F1 position +3 Asn) (synthetic); conditions: apparent Kd; phage display, Zn
[3] = molecular target: F2-Arg finger 3 Asp2Ala finger 3 helix position 2 D to A (synthetic) (UniProt P08046); conditions: about four-fold reduced affinity versus F2-Arg; phage ELISA, Zn, 20 C
[4] = molecular target: Zif268 DNA-binding domain finger 3 Asp2Ala finger 3 helix position 2 D to A (UniProt P08046); conditions: about four-fold reduced affinity versus wild-type Zif268; phage ELISA, Zn, 20 C

Sequence: GACGGCGCC (double strand)
- Kd [1]: 0.017 µM
- Kd [2]: 0.003 µM

Sequence: GCGGTGGCG (double strand) [F2-Arg consensus site]
- binding signal [3]: 4 fold

Sequence: GCGTGGGCG (double strand) [Zif268 consensus site]
- binding signal [4]: 4 fold
